# Data as given in article PMC12749841 (Nature Communications, 2025).
# B1: importin α1 IBB domain (res 1–65) fused to 6xHis Maltose Binding Protein (domain or fragment)
# chain: not shown
# Target: importin β (human, UniProt Q14974 1-876)
# Assay: cryo-EM structure
# Chain of importin β (Q14974 whole entry): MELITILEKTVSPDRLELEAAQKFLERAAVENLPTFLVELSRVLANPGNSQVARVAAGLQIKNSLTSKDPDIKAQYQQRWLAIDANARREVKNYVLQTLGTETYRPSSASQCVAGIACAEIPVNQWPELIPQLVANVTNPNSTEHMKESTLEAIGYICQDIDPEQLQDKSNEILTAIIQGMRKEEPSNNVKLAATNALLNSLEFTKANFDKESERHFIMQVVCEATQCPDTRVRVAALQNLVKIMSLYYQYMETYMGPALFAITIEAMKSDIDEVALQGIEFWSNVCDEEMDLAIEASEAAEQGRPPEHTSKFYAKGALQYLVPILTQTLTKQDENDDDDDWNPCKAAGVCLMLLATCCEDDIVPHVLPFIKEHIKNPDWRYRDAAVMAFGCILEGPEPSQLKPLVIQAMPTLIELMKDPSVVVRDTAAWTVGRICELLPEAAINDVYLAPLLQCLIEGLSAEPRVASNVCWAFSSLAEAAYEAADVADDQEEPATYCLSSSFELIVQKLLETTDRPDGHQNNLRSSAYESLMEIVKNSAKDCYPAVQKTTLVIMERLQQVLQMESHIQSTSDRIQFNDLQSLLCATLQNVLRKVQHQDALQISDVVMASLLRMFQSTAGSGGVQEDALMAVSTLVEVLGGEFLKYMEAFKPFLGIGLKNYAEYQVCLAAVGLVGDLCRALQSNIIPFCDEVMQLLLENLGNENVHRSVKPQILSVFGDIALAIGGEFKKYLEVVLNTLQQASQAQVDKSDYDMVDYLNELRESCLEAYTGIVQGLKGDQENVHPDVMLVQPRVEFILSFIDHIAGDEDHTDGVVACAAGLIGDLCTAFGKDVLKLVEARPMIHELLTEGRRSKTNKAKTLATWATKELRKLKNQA
binder,measurement,value
B1,binding result,binds
